How the values were obtained:
[1] = tested on: H2461; assay: rTRAIL response, viability assay, H2461; assay type: cell-based, Human; settings: BAP1 Deletion - Frameshift, heterozygous
Experimental: Manual “single dose” combination screening was undertaken using 96 well formats. Cells were plated on day 1 in previously optimized seeding densities in 180 μl if media. On day 2 20 μl of a 10× concentration of […] was added. Cells were then allowed to grow for 72 hrs or 6 days and fixed at the end of the assay. Drug wells were compared to DMSO treated control wells.
Single agent high throughput 5 point viability screening was undertaken in 384 well formats using robotic liquid handling with fixing with 4% paraformaldehyde and staining for viability with Syto60 nucleic acid dye (Invitrogen) (see below). Single agent dose response curves were derived for each library of 85-95 drugs according to the experiment used, and log IC50 or area under the curve (AUC) metrics were derived for each library compound in each cell line according to a previously derived formula [18].
Adherent cell lines were seeded 24 hours before drugging. Cells were trypsinised and counted before seeding at the optimal density for the size of well (96 or 384) and duration of assay. 72 hr after drug treatment cells were fixed with 4% paraformaldehyde for 30 minutes. […] Quantification of fluorescent signal was achieved using excitation/emission wavelength of 630/695 […].

[2] = tested on: NCI-H226; assay: Annexin V/DAPI cell death assay, H226 parental and BAP1-transduced lines; assay type: cell-based, Human
Experimental: FIG. 5A is an immunoblot for BAP1 protein in BAP1 null mesothelioma lines following transfection with empty vector and BAP1 expression vector. […] FIG. 5C is a graph showing the effect of rTRAIL on cell viability of an untransduced H226 cell line, a BAP1 (transduced) cell line, and a H226 cell line with the NLS deleted.
Untransduced BAP1-negative H226 cells, BAP1-expressing and catalytically dead BAP1-expressing H226 cells were treated with 100 ng/ml of FASL, TRAIL and TNF-alpha for 24 hours and cell death was quantified by Annexin V/DAPI assay. *p<0.05 indicating significant difference between untransduced H226 cells H226 BAP1 expressing cells. NS no significant difference between untransduced H226 cells and BAP1 C91A transduced cells. #p<0.05 indicating significant difference between untransduced H226 cells and BAP1 C91A transduced cells.
Adherent mesothelioma cell lines were plated in a 96 well plate at approximately 10000 cells per well. Cells were plated and given 1 day to adhere at which time drug was added. After 48 hrs media, including floating cells, was collected from each well. The remaining adherent cells were washed with PBS and mobilised with 0.05% trypsin in EDTA. All cells were collected into tubes containing the previously removed media and pelleted by centrifugation (300 g, 5 minutes). Cells were then re-suspended in 1× Annexin V binding buffer with 10 μl/1 ml concentration of Annexin V-647 antibody (Invitrogen) and incubated for 15 minutes at room temperature. DAPI ([…]) was then added to each sample before flow cytometry analysis as below. Annexin V−/DAPI− cells were judged to be viable, AnnexinV+/DAPI− cells were considered to be undergoing apoptosis (early apoptotic phase), and Annexin V+/DAPI+ cells were considered late apoptotic or necrotic, and recorded as dead.

[3] = tested on: SW1710; assay: rTRAIL viability, bladder cancer cell line SW1710; assay type: cell-based; settings: BAP1 wild-type
Text: (§1) FIG. 8A is a graph showing the effect of rTRAIL on the viability of various cancer cell lines. Bladder (RT4) and Breast (HCC1187) cancer cell lines with nonsense mutations in BAP1 show sensitivity to rTRAIL while renal cell cancer cell lines (769P & RCC10RGB) with missense mutation and wild-type renal (BB65RCC) and bladder cancer (SW1710) cell lines are resistant to TRAIL.

[4] = tested on: MDA MB-231; assay: rTRAIL response after BAP1 knockdown in MDA MB-231; assay type: cell-based; settings: MDA MB-231 breast cancer cell line, BAP1 shRNA
Text: as §1
The deubiquitinase BAP1 is frequently mutated in pleural mesothelioma (36%), uveal melanoma (47%) and intrahepatic cholangiocarcinomas (25%) as previously noted. To determine whether additional BAP1 mutant tumours occur that may also be amenable to this therapeutic approach, the inventors extended this analysis to a cohort of 5180 tumour samples in 20 cancer types using variant data from The Cancer Genome Atlas (TCGA). Truncating BAP1 mutations were also observed in a diverse range of cancer types, with frequencies of up to 6% (see FIGS. 1b, and c) Carbone, M. et al, Nature Reviews Cancer 13, 153-159 (March 2013). When the inventors extended their analysis to a panel of 1001 cancer cell lines that had previously been submitted for whole exome and copy number analysis, they identified 17 cell lines harbouring truncating mutations in BAP1. These included clear cell kidney cancer, bladder cancer and breast cancer cell lines. […]

[5] = tested on: mutated BAP1 xenografts (H226 C91A); assay: Xenograft mouse model, H226 BAP1 and H226 C91A tumours; assay type: in vivo, mice
Text: FIG. 9A is a protocol of an in vivo experiment. FIG. 9B is a box plot showing the weight of tumours extracted from mice injected with mutant or wild-type BAP1-expressing cells after treatment with rTRAIL. […] FIG. 9C is a graph showing that TRAIL treatment reduces the tumour burden (measured by bioluminescence) of mutated BAP1 xenografts when compared to TRAIL treated wild-type BAP1 xenografts or untreated BAP1 mutated and BAP1 wild-type xenografts.
Groups of 8 week old NOD.CB17-Prkdcscid/NcrCrl (NOD SCID) mice (Charles River) were injected on each flank with 1 million cells of luciferase transduced mesothelioma cell lines (H226 BAP and H226 C91A) in a 1:1 mixture of matrigel and media. When tumours were established, as assessed by bioluminescent imaging (IVIS), at 14 days following injection of tumour cells, treatment was began with either vehicle or isoleucine zipper TRAIL (izTRAIL). Either vehicle or izTRAIL were given intraperitoneally once daily at a dose of 600 mcg for the duration of the experiment. Tumour size was assessed at days 0, 13, 19, 26 and 41 using bioluminescent imaging (IVIS). Mice were culled at 42 days and tumours removed and weighed. Six mice per group were treated. Researchers were not blinded in these experiments.

B1: rTRAIL: recombinant protein that activates the TRAIL pathway by binding to TRAIL-R1 (DR 4) and TRAIL-R2 (DR 5) (protein, UniProt P50591 1-281, looked up)
Tumor necrosis factor ligand …: MAMMEVQGGPSLGQTCVLIVIFTVLLQSLCVAVTYVYFTNELKQMQDKYSKSGIACFLKEDDSYWDPNDEESMNSPCWQVKWQLRQLVRKMILRTSEETISTVQEKQQNISPLVRERGPQRVAAHITGTRGRSNTLSSPNSKNEKALGRKINSWESSRSGHSFLSNLHLRNGELVIHEKGFYYIYSQTYFRFQEEIKENTKNDKQMVQYIYKYTSYPDPILLMKSARNSCWSKDAEYGLYSIYQGGIFELKENDRIFVSVTNEHLIDMDHEASFFGAFLVG
- rTRAIL response [1]: Sensitive
- sensitivity of H226 cells to cell death-inducing ligand, dependence on BAP1 catalytic domain ([2]; 100 ng/ml, 24 hours, untransduced, BAP1-expressing and catalytically dead BAP1-expressing H226): regulates the sensitivity
- cell death relative to BAP1 null line ([2]; BAP1 expressing H226 cell line, dose range of TRAIL): significantly reduced
- cell death ([2]; BAP1 null NCI-H226, dose range of TRAIL): increased cell death
- response to TRAIL (viability) [3]: resistant
- sensitivity to rTRAIL after knockdown of BAP1 [4]: increases sensitivity
- tumour weight at end of experiment ([5]; mutated BAP1 tumours vs wild-type BAP1 tumours with TRAIL or vehicle-treated tumours, intraperitoneally once daily 600 mcg): significantly less
- tumour burden (bioluminescence) ([5]; mutated BAP1 xenografts vs wild-type with TRAIL or vehicle-treated xenografts, tracked over 4 weeks): significantly less

From patent US11789012B2, “Cell death biomarker” (UCL Business PLC, priority 2016, dated 2023)
